Assay [1] concerns the target H3N2流感病毒血凝素蛋白 (A/Texas/50/2012) (H3N2 influenza A virus (A/Texas/50/2012)). The experiment in a line: indirect ELISA on coated H3N2 hemagglutinin, ascites.
Assay [2] has the same target. Kind of assay: indirect ELISA on coated H3N2 hemagglutinin, hybridoma culture supernatant.

B1: 抗H3N2流感病毒血凝素蛋白单克隆抗体ZJU32-01 (antibody, V domains shown)
VH: QVQLQQSGAELMKPGASVKISCKATGYIFSSYWIEWVKQRPGHGLEWIGEILPGSGRTNYKEIFKGKATFTADTSSNTAYMQLSSLTSEDSAVYYCARTRTTGSSDWGQGTTLTVSS
VL: DVLMTQTPLSLPVSLGDQASISCRSSQTTVHSNGNTYLEWYLQKPGQSPKLLIYKVSNRFFGVPDRFSGSGSGTDFTLKISRVEAEDLGVYYCFQGSHVPYTFGGGTKLEIK
Consider B1, for which the 效价 (ELISA titer) (dilution (1:x)) in assay [1] was determined as 2048; in assay [2], 64.

The record behind these values is patent publication CN114349852A.
